Read-outs that look alike come from different tables or passages of the source.
Experiments:
[1] = target: human MSLN protein endogenously expressed on tumor cells (Hela, OVCAR3) (human) (UniProt Q13421); assay: FACS, Hela cells
[2] = target: human MSLN-R3-rFc protein (human) (UniProt Q13421); assay: ELISA, antibody 4 nM
[3] = target: human MSLN-R3-3 polypeptide (purchased from GL Biochem, Cat. No. 406676) (human); assay: ELISA, antibody 1 nM
[4] = target: human MSLN-R3-rFc protein (human) (UniProt Q13421); assay: ELISA, antibody 1 nM
[5] = target: human MSLN-R3-rFc protein (human) (UniProt Q13421); assay: ELISA, antibody 100 nM
[6] = target: human MSLN-R3-rFc protein (human) (UniProt Q13421); assay: ELISA, antibody 0.032 nM
[7] = target: human MSLN full-length protein, recombinant, on CHO-K1 or HEK293T cells (human) (UniProt Q13421); assay: FACS, CHO-K1-hMSLN-2C8 cells
[8] = target: monkey MSLN full-length protein on HEK293T cells (monkey); assay: FACS, HEK293T-monkey MSLN cells
[9] = target: monkey MSLN full-length protein on HEK293T cells (monkey); assay: FACS, HEK293T-monkey MSLN cells; remark: listed apart in the source
[10] = target: human MSLN protein endogenously expressed on tumor cells (Hela, OVCAR3) (human) (UniProt Q13421); assay: FACS, OVCAR3 cells, antibody 20 nM
[11] = target: human MSLN protein endogenously expressed on tumor cells (Hela, OVCAR3) (human) (UniProt Q13421); assay: FACS, OVCAR3 cells, antibody 0.8 nM
[12] = target: human MSLN protein endogenously expressed on tumor cells (Hela, OVCAR3) (human) (UniProt Q13421); assay: FACS, OVCAR3 cells, antibody 100 nM
[13] = target: chimeric human MSLN-R3 / chicken MSLN-R1-2 protein on HEK293T cells (clone A5) (chicken; human); assay: FACS, HEK293T-chickR1-2/hR3-A5 cells
[14] = target: human MSLN full-length protein on transfected cells (CHO-K1-hMSLN clones 2C8, 2D11, 2C5; HEK293T-hMSLN clones B8, 2A4, 2A7) (human) (UniProt Q13421); assay: FACS, CHO-K1-hMSLN-2C8 cells, antibody 20 nM
[15] = target: human MSLN full-length protein on transfected cells (CHO-K1-hMSLN clones 2C8, 2D11, 2C5; HEK293T-hMSLN clones B8, 2A4, 2A7) (human) (UniProt Q13421); assay: FACS, CHO-K1-hMSLN-2C8 cells, antibody 100 nM
[16] = target: human MSLN full-length protein on transfected cells (CHO-K1-hMSLN clones 2C8, 2D11, 2C5; HEK293T-hMSLN clones B8, 2A4, 2A7) (human) (UniProt Q13421); assay: FACS, CHO-K1-hMSLN-2C8 cells, antibody 0.16 nM
[17] = target: monkey MSLN full-length protein on HEK293T cells (monkey); assay: FACS, HEK293T-monkey-MSLN cells, antibody 4 nM
[18] = target: monkey MSLN full-length protein on HEK293T cells (monkey); assay: FACS, HEK293T-monkey-MSLN cells, antibody 0.16 nM
[19] = target: chimeric human MSLN-R3 / chicken MSLN-R1-2 protein on HEK293T cells (clone A5) (chicken; human); assay: FACS, HEK293T-hR3/chickR1-2-A5 cells, antibody 20 nM
[20] = target: human MSLN full-length protein, recombinant, on CHO-K1 or HEK293T cells (human) (UniProt Q13421); assay: competitive FACS on CHO-K1-human MSLN-2C8 cells vs Biotin-Tab142; competitor at 8 nM
[21] = target: human MSLN full-length protein, recombinant, on CHO-K1 or HEK293T cells (human) (UniProt Q13421); assay: competitive FACS on CHO-K1-human MSLN-2C8 cells vs Biotin-Tab131; competitor at 8 nM
[22] = target: human MSLN full-length protein, recombinant, on CHO-K1 or HEK293T cells (human) (UniProt Q13421); assay: competitive FACS on CHO-K1-human MSLN-2C8 cells vs Biotin-Tab131; competitor at 40 nM
[23] = target: human MSLN full-length protein, recombinant, on CHO-K1 or HEK293T cells (human) (UniProt Q13421); assay: competitive FACS on CHO-K1-human MSLN-2C8 cells vs Biotin-Tab142; competitor at 100 nM
[24] = target: human MSLN full-length protein, recombinant, on CHO-K1 or HEK293T cells (human) (UniProt Q13421); assay: competitive FACS on CHO-K1-human MSLN-2C8 cells vs Biotin-Tab142; competitor at 1.6 nM
[25] = target: human MSLN full-length protein, recombinant, on CHO-K1 or HEK293T cells (human) (UniProt Q13421); assay: competitive FACS on CHO-K1-human MSLN-2C8 cells vs Biotin-Tab142; competitor at 200 nM
[26] = target: human MSLN full-length protein, recombinant, on CHO-K1 or HEK293T cells (human) (UniProt Q13421); assay: competitive FACS on CHO-K1-human MSLN-2C8 cells vs Biotin-Tab131; competitor at 200 nM
[27] = target: human MSLN full-length protein, recombinant, on CHO-K1 or HEK293T cells (human) (UniProt Q13421); assay: competitive FACS on CHO-K1-human MSLN-2C8 cells vs Biotin-Tab142; competitor at 0.064 nM
[28] = target: human MSLN full-length protein, recombinant, on CHO-K1 or HEK293T cells (human) (UniProt Q13421); assay: competitive FACS on CHO-K1-human MSLN-2C8 cells vs Biotin-Tab142; competitor at 0.0128 nM
[29] = target: human MSLN full-length protein, recombinant, on CHO-K1 or HEK293T cells (human) (UniProt Q13421); assay: competitive FACS on CHO-K1-human MSLN-2C8 cells vs Biotin-Tab131; competitor at 0.0128 nM

Sequence of human MSLN full-length protein on transfected cells (CHO-K1-hMSLN clones 2C8, 2D11, 2C5; HEK293T-hMSLN clones B8, 2A4, 2A7) (human) (Q13421 other isoform, or with tags, fused parts or gaps limits assumed): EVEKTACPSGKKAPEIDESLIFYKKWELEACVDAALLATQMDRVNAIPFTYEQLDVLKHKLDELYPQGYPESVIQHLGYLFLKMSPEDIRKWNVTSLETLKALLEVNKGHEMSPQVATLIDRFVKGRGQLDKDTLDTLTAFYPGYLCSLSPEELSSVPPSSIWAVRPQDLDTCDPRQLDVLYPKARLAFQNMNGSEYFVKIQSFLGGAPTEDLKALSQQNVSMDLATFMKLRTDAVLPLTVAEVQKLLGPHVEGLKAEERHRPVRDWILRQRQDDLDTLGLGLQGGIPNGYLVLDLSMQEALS
Sequence of human MSLN full-length protein, recombinant, on CHO-K1 or HEK293T cells (human) (Q13421 other isoform, or with tags, fused parts or gaps limits assumed): as above
Sequence of human MSLN protein endogenously expressed on tumor cells (Hela, OVCAR3) (human) (Q13421 other isoform, or with tags, fused parts or gaps): as the sequence (Q13421 other isoform, or with tags, fused parts or gaps limits assumed) above, with P14R counted along it
Sequence of chimeric human MSLN-R3 / chicken MSLN-R1-2 protein on HEK293T cells (clone A5) (chicken; human) (Q13421 495-614, change not shown): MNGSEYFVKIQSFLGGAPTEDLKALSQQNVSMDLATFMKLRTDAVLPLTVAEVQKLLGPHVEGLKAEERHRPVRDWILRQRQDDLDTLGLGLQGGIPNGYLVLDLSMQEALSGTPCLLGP
Sequence of human MSLN-R3-3 polypeptide (purchased from GL Biochem, Cat. No. 406676) (human) (peptide, as listed by the source): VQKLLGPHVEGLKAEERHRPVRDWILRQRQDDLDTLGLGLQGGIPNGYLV

Max MFI [1]: 75 | OD450 nm [2]: 0.15 | OD450 nm [3]: 0.06 | OD450 nm [4]: 0.09 | OD450 nm [5]: 0.21 | OD450 nm [6]: 0.11 | Max MFI [7]: 80 | Max MFI [8]: 104 | Max MFI [9]: 137 | FACS signal (MFI) [10]: 78 | MFI [10]: 329 | FACS signal (MFI) [11]: 76 | FACS signal (MFI) [12]: 93 | Max MFI [13]: 115 | FACS signal (MFI) [14]: 156 | FACS signal (MFI) [15]: 72 | FACS signal (MFI) [16]: 59 | FACS signal (MFI) [17]: 85 | FACS signal (MFI) [18]: 85 | MFI [19]: 74 | MFI of Biotin-Tab142 [20]: 23000 | MFI of Biotin-Tab131 [21]: 13000 | MFI of Biotin-Tab131 [22]: 12500 | MFI of Biotin-Tab142 [23]: 41200 | MFI of Biotin-Tab142 [24]: 22700 | MFI of Biotin-Tab142 [25]: 24000 | MFI of Biotin-Tab131 [26]: 12900 | MFI of Biotin-Tab142 [27]: 23600 | MFI of Biotin-Tab142 [28]: 24100 | MFI of Biotin-Tab131 [29]: 12600
Substance: hIgG1 (antibody)

Reference: patent US20240124563A1
